Assays:
[1] = molecular target: T1, human PVRIG expressed on cells (human, UniProt Q6DKI7 41-326); assay: flow cytometry on HuPVRIG-overexpressed Jurkat cells
T1 construct: Jurkat cells engineered to express human PVRIG; also called hPVRIG-Jurkat; native human PVRIG
T1 sequence: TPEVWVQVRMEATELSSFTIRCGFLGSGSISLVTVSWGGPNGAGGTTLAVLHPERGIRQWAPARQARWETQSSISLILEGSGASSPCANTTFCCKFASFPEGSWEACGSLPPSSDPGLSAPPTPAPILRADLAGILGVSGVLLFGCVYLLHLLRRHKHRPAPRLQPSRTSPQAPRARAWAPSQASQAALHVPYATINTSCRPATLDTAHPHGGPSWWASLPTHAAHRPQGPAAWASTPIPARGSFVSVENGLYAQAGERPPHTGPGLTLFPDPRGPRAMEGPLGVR

[2] = molecular target: T1, human PVRIG expressed on cells; assay: cell-based or functional assay
[3] = molecular target: T1, human PVRIG expressed on cells; assay: flow cytometry on Jurkat cells expressing human PVRIG, anti-hFc-647 detection [panel B]
Procedure: To evaluate the binding activity of anti-PVRIG antibodies to native PVRIG on living cells, Jurkat cells were engineered to express human PVRIG. Jurkat cells expressing PVRIG were seeded in 96 well plates and were incubated with serially diluted anti-PVRIG antibodies. […] EC50 values for dose dependent binding to human native PVRIG were determined by fitting the dose response data to the four-parameter logistic model with GraphPad Prism™.

FcγRIIIA V158 = FcγRIIIA V158 (human, UniProt P08637 17-208, limits assumed); assay: Biacore, KD from equilibrium analysis
Procedure: (§1) K¹ (M) values were calculated from the ratio of the kinetic constants as KD=koff/kₒₙ. K2 (M) values were determined by the analyte concentration at which half of the ligands are occupied at equilibrium.

FcγRIIIA F158 = FcγRIIIA F158 (human, UniProt P08637 17-208, limits assumed); assay: Biacore, KD from equilibrium analysis
Procedure: as §1

Chain of FcγRIIIA F158 (P08637 17-208 limits assumed): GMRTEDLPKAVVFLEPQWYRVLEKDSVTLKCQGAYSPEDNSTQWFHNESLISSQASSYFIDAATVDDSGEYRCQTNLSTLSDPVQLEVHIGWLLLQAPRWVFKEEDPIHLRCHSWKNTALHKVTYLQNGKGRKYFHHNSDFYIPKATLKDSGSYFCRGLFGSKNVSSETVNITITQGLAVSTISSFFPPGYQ
Chain of FcγRIIIA V158 (P08637 17-208 F176V limits assumed): as the sequence (P08637 17-208 limits assumed) above, with F160V counted along it

B1: BGA384 (antibody, human IgG1, kappa)
heavy: not shown
light: QIVLTQSPATLSLSPGERATLSCSAGSSVNYMHWFQQKPGQAPRLLIYSTSNLASGVPARFSGSGSGTDYTLTISSLEPEDFAVYYCQQRSSLPFTFGQGTKLEIKRTVAAPSVFIFPPSDEQLKSGTASVVCLLNNFYPREAKVQWKVDNALQSGNSQESVTEQDSKDSTYSLSSTLTLSKADYEKHKVYACEVTHQGLSSPVTKSFNRGEC
notes: also called BGB-A538; BGA384 WT
Question: For B1, which EC50 [1] is on record?
Answer: 0.0269 µg/mL

Question: And the “EC50 of promoter-driven luminescence, JK-NFAT-HuPVRIG with A549/OS8-H cells” value [2]?
Answer: 0.0377 µg/mL

Question: And the “EC50 (read off the curve)” value [3]?
Answer: ~0.03 µg/mL

Question: What about the Kd (FcγRIIIA V158) of the same binder?
Answer: 297 nM

Question: And the Kd (FcγRIIIA F158)?
Answer: 689 nM
